This passage reports SPOT signal as a fraction of Bim BH3's signal on the same receptor and array results from PMC4072508, “Genome-Wide Prediction and Validation of Peptides That Bind Human Prosurvival Bcl-2 Proteins” (PLoS Computational Biology, 2014).

T1: Bfl-1, Q16548
T1 chain: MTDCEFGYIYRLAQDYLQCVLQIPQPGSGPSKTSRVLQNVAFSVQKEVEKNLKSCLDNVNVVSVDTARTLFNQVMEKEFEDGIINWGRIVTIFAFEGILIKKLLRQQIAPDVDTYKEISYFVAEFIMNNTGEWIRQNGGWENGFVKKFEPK

T2: Mcl-1, Q07820
T2 chain: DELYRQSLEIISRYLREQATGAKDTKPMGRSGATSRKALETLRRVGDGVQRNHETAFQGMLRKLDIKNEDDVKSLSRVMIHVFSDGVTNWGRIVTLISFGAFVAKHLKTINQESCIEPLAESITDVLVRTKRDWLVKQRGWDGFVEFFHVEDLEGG

Sequence of Bcl-xL, Q07817 (Q07817 1-209): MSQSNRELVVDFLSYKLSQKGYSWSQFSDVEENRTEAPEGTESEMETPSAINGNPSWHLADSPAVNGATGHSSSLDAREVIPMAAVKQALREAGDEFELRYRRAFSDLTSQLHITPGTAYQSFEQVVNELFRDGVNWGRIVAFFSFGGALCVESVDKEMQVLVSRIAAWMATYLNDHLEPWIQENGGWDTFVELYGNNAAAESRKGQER

One assay concerns the target Bcl-xL, Q07817. In words: peptide SPOT array, c-Myc-tagged receptor at 1 uM or 100 nM, anti-c-Myc-Cy3.
Regarding HHSSQEMSSEDREYADSFGKCPGGRN [PCYT2], the SPOT signal as a fraction of Bim BH3's signal on the same receptor and array was 0.05.

Molecule SQGKHGFTMAMNAFGDMTNEEFRQMM [CTSL2] registered an SPOT signal as a fraction of Bim BH3's signal on the same receptor and array of 0.08.

QCPIFRLGDIFRETLDNFSDVAIQGG [P2RX7] had an SPOT signal as a fraction of Bim BH3's signal on the same receptor and array of 0.06.

Take AIILCNVCGNLCTDLDRFLHLHRRTK [MYCBP2]: the SPOT signal as a fraction of Bim BH3's signal on the same receptor and array turned out to be 0.51.

In turn, THFLDEEVKLIKKMLDHLTNLHRLGG [FTL] registered an SPOT signal as a fraction of Bim BH3's signal on the same receptor and array of 0.07.

As for SKEVAILCSFLLGLLDSCFNTQLLSI [MFSD11], the SPOT signal as a fraction of Bim BH3's signal on the same receptor and array turned out to be 0.09.

On to EQWAREIGAQDRRMADDLNAQYERRR, for which the SPOT signal as a fraction of Bim BH3's signal on the same receptor and array came out at 0.05.

On to AGYELLIQKFLSLYLDQIDMHRKFVV [ISOC1], for which the SPOT signal as a fraction of Bim BH3's signal on the same receptor and array is 0.09.

Consider VTLLSEVEKMLSNFLDCVQYKEIVKN [SYNE1], for which the SPOT signal as a fraction of Bim BH3's signal on the same receptor and array came out at 0.11.

Consider LMARPAVALHFQSILDGFKEAVRYVL [SOS2], for which the SPOT signal as a fraction of Bim BH3's signal on the same receptor and array is 0.48.

As to KLALEQRCRELRARLRRLEETLPRRI [KIF19], the SPOT signal as a fraction of Bim BH3's signal on the same receptor and array is 1.14.

ISSYMVLAPVFGYLLDRYNRKYLMCG [SPNS1]: the SPOT signal as a fraction of Bim BH3's signal on the same receptor and array is 1.11.

Consider QAGPVSSGLALRKLLDRVQLLNLLVT [CCDC57], for which the SPOT signal as a fraction of Bim BH3's signal on the same receptor and array was 0.74.

For the molecule PALLVHWAKCDQKMGRGLNSSYDQQE, the SPOT signal as a fraction of Bim BH3's signal on the same receptor and array came to 0.38.

Molecule PALLVHWAKCLQKMGRGLNSSYDQQE registered an SPOT signal as a fraction of Bim BH3's signal on the same receptor and array of 0.89.

On to EQWAREIGAQLRRMLDDLNAQYERRR, for which the SPOT signal as a fraction of Bim BH3's signal on the same receptor and array is 0.19.

For SHFVACMTAIDNQMGDQHYSFYIETF [DOCK2], the SPOT signal as a fraction of Bim BH3's signal on the same receptor and array is 0.08.

With SDIRDDISEQDRHVGRTVRGHPRKKL [TMEM184C], the SPOT signal as a fraction of Bim BH3's signal on the same receptor and array was 0.45.

Consider HTALENCASLDCIRADELQEALTSHC [MYO3A], for which the SPOT signal as a fraction of Bim BH3's signal on the same receptor and array stood at 0.05.

The molecule KIETTPESRYDAQIGDSVSLTCSTTG [VCAM1] displayed an SPOT signal as a fraction of Bim BH3's signal on the same receptor and array of 0.05.

In turn, TAAAAYRGAHLRGRLRTVYNTFRAAA [XXXX] registered an SPOT signal as a fraction of Bim BH3's signal on the same receptor and array of 2.37.

SQEPLEKAQLLALVLDQLIQSHHYAA [MCF2L2]: the SPOT signal as a fraction of Bim BH3's signal on the same receptor and array is 0.06.

In a further assay the target is T1, Bfl-1, Q16548. The description is as above.
In turn, HHSSQEMSSEDREYADSFGKCPGGRN [PCYT2] registered an SPOT signal as a fraction of Bim BH3's signal on the same receptor and array of 0.03.

For SQGKHGFTMAMNAFGDMTNEEFRQMM [CTSL2], the SPOT signal as a fraction of Bim BH3's signal on the same receptor and array was 0.08.

Consider QCPIFRLGDIFRETLDNFSDVAIQGG [P2RX7], for which the SPOT signal as a fraction of Bim BH3's signal on the same receptor and array came to 0.04.

AIILCNVCGNLCTDLDRFLHLHRRTK [MYCBP2] came in with an SPOT signal as a fraction of Bim BH3's signal on the same receptor and array of 0.28.

The molecule THFLDEEVKLIKKMLDHLTNLHRLGG [FTL] displayed an SPOT signal as a fraction of Bim BH3's signal on the same receptor and array of 0.04.

SKEVAILCSFLLGLLDSCFNTQLLSI [MFSD11] yielded an SPOT signal as a fraction of Bim BH3's signal on the same receptor and array of 0.04.

For the molecule EQWAREIGAQDRRMADDLNAQYERRR, the SPOT signal as a fraction of Bim BH3's signal on the same receptor and array worked out at 0.02.

Regarding AGYELLIQKFLSLYLDQIDMHRKFVV [ISOC1], the SPOT signal as a fraction of Bim BH3's signal on the same receptor and array is 0.05.

Turning to VTLLSEVEKMLSNFLDCVQYKEIVKN [SYNE1], the SPOT signal as a fraction of Bim BH3's signal on the same receptor and array was found to be 0.06.

Consider LMARPAVALHFQSILDGFKEAVRYVL [SOS2], for which the SPOT signal as a fraction of Bim BH3's signal on the same receptor and array is 0.44.

The molecule KLALEQRCRELRARLRRLEETLPRRI [KIF19] showed an SPOT signal as a fraction of Bim BH3's signal on the same receptor and array of 1.04.

Molecule ISSYMVLAPVFGYLLDRYNRKYLMCG [SPNS1] had an SPOT signal as a fraction of Bim BH3's signal on the same receptor and array of 0.78.

In turn, QAGPVSSGLALRKLLDRVQLLNLLVT [CCDC57] yielded an SPOT signal as a fraction of Bim BH3's signal on the same receptor and array of 0.34.

On to PALLVHWAKCDQKMGRGLNSSYDQQE, for which the SPOT signal as a fraction of Bim BH3's signal on the same receptor and array is 0.26.

PALLVHWAKCLQKMGRGLNSSYDQQE yielded an SPOT signal as a fraction of Bim BH3's signal on the same receptor and array of 0.47.

As for EQWAREIGAQLRRMLDDLNAQYERRR, the SPOT signal as a fraction of Bim BH3's signal on the same receptor and array turned out to be 0.09.

SHFVACMTAIDNQMGDQHYSFYIETF [DOCK2] registered an SPOT signal as a fraction of Bim BH3's signal on the same receptor and array of 0.05.

SDIRDDISEQDRHVGRTVRGHPRKKL [TMEM184C] showed an SPOT signal as a fraction of Bim BH3's signal on the same receptor and array of 0.14.

The molecule HTALENCASLDCIRADELQEALTSHC [MYO3A] gave an SPOT signal as a fraction of Bim BH3's signal on the same receptor and array of 0.03.

The molecule KIETTPESRYDAQIGDSVSLTCSTTG [VCAM1] gave an SPOT signal as a fraction of Bim BH3's signal on the same receptor and array of 0.03.

TAAAAYRGAHLRGRLRTVYNTFRAAA [XXXX]: the SPOT signal as a fraction of Bim BH3's signal on the same receptor and array is 1.55.

The molecule SQEPLEKAQLLALVLDQLIQSHHYAA [MCF2L2] yielded an SPOT signal as a fraction of Bim BH3's signal on the same receptor and array of 0.03.

The target in another assay is T2, Mcl-1, Q07820. The description is as above.
In turn, HHSSQEMSSEDREYADSFGKCPGGRN [PCYT2] registered an SPOT signal as a fraction of Bim BH3's signal on the same receptor and array of 0.04.

For the molecule SQGKHGFTMAMNAFGDMTNEEFRQMM [CTSL2], the SPOT signal as a fraction of Bim BH3's signal on the same receptor and array amounted to 0.09.

QCPIFRLGDIFRETLDNFSDVAIQGG [P2RX7] returned an SPOT signal as a fraction of Bim BH3's signal on the same receptor and array of 0.05.

In turn, AIILCNVCGNLCTDLDRFLHLHRRTK [MYCBP2] returned an SPOT signal as a fraction of Bim BH3's signal on the same receptor and array of 0.51.

THFLDEEVKLIKKMLDHLTNLHRLGG [FTL] showed an SPOT signal as a fraction of Bim BH3's signal on the same receptor and array of 0.05.

The molecule SKEVAILCSFLLGLLDSCFNTQLLSI [MFSD11] showed an SPOT signal as a fraction of Bim BH3's signal on the same receptor and array of 0.05.

Turning to EQWAREIGAQDRRMADDLNAQYERRR, the SPOT signal as a fraction of Bim BH3's signal on the same receptor and array was found to be 0.07.

The molecule AGYELLIQKFLSLYLDQIDMHRKFVV [ISOC1] displayed an SPOT signal as a fraction of Bim BH3's signal on the same receptor and array of 0.07.

In the case of VTLLSEVEKMLSNFLDCVQYKEIVKN [SYNE1], the SPOT signal as a fraction of Bim BH3's signal on the same receptor and array turned out to be 0.06.

For LMARPAVALHFQSILDGFKEAVRYVL [SOS2], the SPOT signal as a fraction of Bim BH3's signal on the same receptor and array worked out at 0.84.

Molecule KLALEQRCRELRARLRRLEETLPRRI [KIF19] displayed an SPOT signal as a fraction of Bim BH3's signal on the same receptor and array of 0.72.

In turn, ISSYMVLAPVFGYLLDRYNRKYLMCG [SPNS1] registered an SPOT signal as a fraction of Bim BH3's signal on the same receptor and array of 0.73.

Consider QAGPVSSGLALRKLLDRVQLLNLLVT [CCDC57], for which the SPOT signal as a fraction of Bim BH3's signal on the same receptor and array was determined as 0.42.

Turning to PALLVHWAKCDQKMGRGLNSSYDQQE, the SPOT signal as a fraction of Bim BH3's signal on the same receptor and array is 0.41.

The molecule PALLVHWAKCLQKMGRGLNSSYDQQE yielded an SPOT signal as a fraction of Bim BH3's signal on the same receptor and array of 0.51.

As to EQWAREIGAQLRRMLDDLNAQYERRR, the SPOT signal as a fraction of Bim BH3's signal on the same receptor and array worked out at 0.11.

Molecule SHFVACMTAIDNQMGDQHYSFYIETF [DOCK2] returned an SPOT signal as a fraction of Bim BH3's signal on the same receptor and array of 0.05.

Molecule SDIRDDISEQDRHVGRTVRGHPRKKL [TMEM184C] came in with an SPOT signal as a fraction of Bim BH3's signal on the same receptor and array of 0.13.

HTALENCASLDCIRADELQEALTSHC [MYO3A] yielded an SPOT signal as a fraction of Bim BH3's signal on the same receptor and array of 0.03.

On to KIETTPESRYDAQIGDSVSLTCSTTG [VCAM1], for which the SPOT signal as a fraction of Bim BH3's signal on the same receptor and array was 0.03.

On to TAAAAYRGAHLRGRLRTVYNTFRAAA [XXXX], for which the SPOT signal as a fraction of Bim BH3's signal on the same receptor and array came out at 1.64.

SQEPLEKAQLLALVLDQLIQSHHYAA [MCF2L2]: the SPOT signal as a fraction of Bim BH3's signal on the same receptor and array was determined as 0.04.
